Data from article PMC3641580 (Cell, 2013).

Target: hMutSα (hMSH2-hMSH6), wild type (human, UniProt P43246 1-934; P52701 1-1360)
Assay: pull-down

ARKSAPATGGVKKPHRYRP (dimethyl-lysine at K36; biotin (position not given)) [biotin-labeled histone H3 peptide with di-methylated K36]: binds.
